Results published in patent publication US6322962A, “Sterol-regulated Site-1 protease and assays of modulators thereof” (Board of Regents, The University of Texas System, priority 1999, dated 2001).

How the values were obtained:
furin = conditions: cited from earlier work
SKI-1 = conditions: Seidah et al., 1999, preliminary data; cited from earlier work
SREBP-2 = assay: Immunoblot of cleavage of HSV-tagged SREBP-2 in transfected SRD-12B cells; assay type: cell-based, hamster; conditions: SRD-12B cells, HSV-tagged SREBP-2
Procedure: On day 0, SRD-12B cells were set up at a density of 6×10^5 cells/60-mm dish in medium B. On day 1, cells were transfected with 4 μg of the indicated plasmid DNA plus 12 μl of LipofectAMINE™ reagent (Life Technologies) according to the manufacturer's instructions with modifications as follows. LipofectAMINE™/DNA complexes were formed in 1 ml of serum-free medium for 15 min at room temperature, and 0.5 ml were added to 1 ml of serum-free medium per dish. […] After incubation at 37 ° C. for 20 h, the cells received N-acetyl-leucinal-leucinal norleucinal (ALLN) at a final concentration of 25 μg/ml. […] After boiling for 5 min, the proteins were subjected to SDS-PAGE and transferred to Hybond-C Extra nitrocellulose filters (Amersham). The filters were incubated with the antibodies described in the figure legends. […] Gels were calibrated with prestained molecular weight markers (New England Biolabs, Beverly, Mass.). Filters were exposed to X-Omat Blue XB-1 film (Kodak, Rochester, N.Y.) with intensifying screens at room temperature for the indicated time.
Cell membranes and nuclear extracts were subjected to electrophoresis and blotted with an antibody against the HSV epitope-tag.
In a more direct test for S1P catalytic activity, the mutant plasmids were transfected into the SRD-12B cells together with pTK-HSV-BP2. Membranes and nuclear extracts were subjected to SDS-PAGE and blotted with an antibody against the HSV-tagged SREBP-2 (FIG. 9B).
The inventors cotransfected cDNAs encoding wild-type S1P or one of the mutants. Cell membrane pellets and nuclear extracts were subjected to SDS-PAGE. and the NH2 -terminus of SREBP-2 was visualized by immunoblotting with anti-HSV (FIG. 16A).

[1] = tested on: PLAP-BP2(513-1141) in SRD-12B cells; assay: Secreted alkaline phosphatase assay in SRD-12B cells transfected with wild-type or mutant S1P cDNAs; assay type: cell-based, hamster; conditions: Myc-tagged S1P cDNA

furin: subtilisin-like protease, literature comparator
Kcat (furin in a similar assay) (furin; Molloy et al., 1992): 1.6 mol/min per mol of enzyme
pH optimum (furin; furin and the prohormone convertases, Nakayama, 1997): 6-7

O=C(O)CN(CCN(CC(=O)O)CC(=O)O)CC(=O)O [EDTA]
inhibition of furin (furin; Nakayama, 1997, Molloy et al., 1992): totally inhibited

27-amino acid synthetic peptide: 27-amino acid synthetic peptide corresponding to the luminal loop sequence of human SREBP-2 (GGAHDSDQHPHSGSGRSVLSFESGSGG)
cleavage by SKI-1 culture medium (SKI-1): able to cleave

B1: S1P-B: amino acids 138-1052 of SEQ ID NO:1 (protein)
chain: FAESDPIVPCNETRWSQKWQSSRPLRRASLSLGSGFWHATGRHSSRRLLRAIPRQVAQTLQADVLWQMGYTGANVRVAVFDTGLSEKHPHFKNVKERTNWTNERTLDDGLGHGTFVAGVIASMRECQGFAPDAELHIFRVFTNNQVSYTSWFLDAFNYAILKKIDVLNLSIGGPDFMDHPFVDKVWELTANNVIMVSAIGNDGPLYGTLNNPADQMDVIGVGGIDFEDNIARFSSRGMTTWELPGGYGRVKPDIVTYGAGVRGSGVKGGCRALSGTSVASPVVAGAVTLLVSTVQKRELVNPASVKQALIASARRLPGVNMFEQGHGKLDLLRAYQILSSYKPQASLSPSYIDLTECPYMWPYCSQPIYYGGMPTIVNVTILNGMGVTGRIVDKPEWRPYLPQNGDNIEVAFSYSSVLWPWSGYLAISISVTKKAASWEGIAQGHIMITVASPAETEAKNGAEHTSTVKLPIKVKIIPTPPRSKRVLWDQYHNLRYPPGYFPRDNLRMKNDPLDWNGDHVHTNFRDMYQHLRSMGYFVEVLGAPFTCFDATQYGTLLMVDSEEEYFPEEIAKLRRDVDNGLSLVIFSDWYNTSVMRKVKFYDENTRQWWMPDTGGANIPALNELLSVWNMGFSDGLYEGEFALANHDMYYASGCSIAKFPEDGVVITQTFKDQGLEVLKQETAVVENVPILGLYQIPAEGGGRIVLYGDSNCLDDSHRQKDCFWLLDALLQYTSYGVNPPSLSHSGNRQRPPSGAGLAPPERMEGNHLHRYSKVLEAHLGDPKPRPLPACPHLSWAKPQPLNETAPSNLWKHQKLLSIDLDKVVLPNFRSNRPQVRPLSPGESGAWDIPGGIMPGRYNQEVGQTIPVFAFLGAMVALAFFVVQISKAKSRPKRRRPRAKRPQLTQQTHPPRTPSV
cleavage of SREBP-2 by S1P or S1P mutant (SREBP-2): active

B2: wild-type S1P: hamster Site-1 protease expressed from cDNA (protein, UniProt Q9Z2A8 187-1052, looked up)
Membrane-bound transcription …: RAIPRQVAQTLQADVLWQMGYTGANVRVAVFDTGLSEKHPHFKNVKERTNWTNERTLDDGLGHGTFVAGVIASMRECQGFAPDAELHIFRVFTNNQVSYTSWFLDAFNYAILKKIDVLNLSIGGPDFMDHPFVDKVWELTANNVIMVSAIGNDGPLYGTLNNPADQMDVIGVGGIDFEDNIARFSSRGMTTWELPGGYGRVKPDIVTYGAGVRGSGVKGGCRALSGTSVASPVVAGAVTLLVSTVQKRELVNPASVKQALIASARRLPGVNMFEQGHGKLDLLRAYQILSSYKPQASLSPSYIDLTECPYMWPYCSQPIYYGGMPTIVNVTILNGMGVTGRIVDKPEWRPYLPQNGDNIEVAFSYSSVLWPWSGYLAISISVTKKAASWEGIAQGHIMITVASPAETEAKNGAEHTSTVKLPIKVKIIPTPPRSKRVLWDQYHNLRYPPGYFPRDNLRMKNDPLDWNGDHVHTNFRDMYQHLRSMGYFVEVLGAPFTCFDATQYGTLLMVDSEEEYFPEEIAKLRRDVDNGLSLVIFSDWYNTSVMRKVKFYDENTRQWWMPDTGGANIPALNELLSVWNMGFSDGLYEGEFALANHDMYYASGCSIAKFPEDGVVITQTFKDQGLEVLKQETAVVENVPILGLYQIPAEGGGRIVLYGDSNCLDDSHRQKDCFWLLDALLQYTSYGVTPPSLSHSGNRQRPPSGAGLAPPERMEGNHLHRYSKVLEAHLGDPKPRPLPACPHLSWAKPQPLNETAPSNLWKHQKLLSIDLDKVVLPNFRSNRPQVRPLSPGESGAWDIPGGIMPGRYNQEVGQTIPVFAFLGAMVALAFFVVQISKAKSRPKRRRPRAKRPQLTQQTHPPRTPSV
PLAP activity in the culture medium [1]: increased
cleavage of SREBP-2 by S1P or S1P mutant (SREBP-2): maximal cleavage
cleavage of SREBP-2 by S1P or S1P mutant (SREBP-2; listed as Wild-type S1P): restored cleavage

B3: 5411A: control S1P mutant, serine near catalytic triad mutated to alanine (protein, UniProt Q9Z2A8 187-1052, looked up, variant S411A)
Membrane-bound transcription …: RAIPRQVAQTLQADVLWQMGYTGANVRVAVFDTGLSEKHPHFKNVKERTNWTNERTLDDGLGHGTFVAGVIASMRECQGFAPDAELHIFRVFTNNQVSYTSWFLDAFNYAILKKIDVLNLSIGGPDFMDHPFVDKVWELTANNVIMVSAIGNDGPLYGTLNNPADQMDVIGVGGIDFEDNIARFSSRGMTTWELPGGYGRVKPDIVTYGAGVRGSGVKGGCRALAGTSVASPVVAGAVTLLVSTVQKRELVNPASVKQALIASARRLPGVNMFEQGHGKLDLLRAYQILSSYKPQASLSPSYIDLTECPYMWPYCSQPIYYGGMPTIVNVTILNGMGVTGRIVDKPEWRPYLPQNGDNIEVAFSYSSVLWPWSGYLAISISVTKKAASWEGIAQGHIMITVASPAETEAKNGAEHTSTVKLPIKVKIIPTPPRSKRVLWDQYHNLRYPPGYFPRDNLRMKNDPLDWNGDHVHTNFRDMYQHLRSMGYFVEVLGAPFTCFDATQYGTLLMVDSEEEYFPEEIAKLRRDVDNGLSLVIFSDWYNTSVMRKVKFYDENTRQWWMPDTGGANIPALNELLSVWNMGFSDGLYEGEFALANHDMYYASGCSIAKFPEDGVVITQTFKDQGLEVLKQETAVVENVPILGLYQIPAEGGGRIVLYGDSNCLDDSHRQKDCFWLLDALLQYTSYGVTPPSLSHSGNRQRPPSGAGLAPPERMEGNHLHRYSKVLEAHLGDPKPRPLPACPHLSWAKPQPLNETAPSNLWKHQKLLSIDLDKVVLPNFRSNRPQVRPLSPGESGAWDIPGGIMPGRYNQEVGQTIPVFAFLGAMVALAFFVVQISKAKSRPKRRRPRAKRPQLTQQTHPPRTPSV
PLAP activity relative to wild-type levels [1]: 50-70 % of wild-type levels

B4: S1P-C: amino acids 187-1052 of SEQ ID NO:1 (protein)
chain: RAIPRQVAQTLQADVLWQMGYTGANVRVAVFDTGLSEKHPHFKNVKERTNWTNERTLDDGLGHGTFVAGVIASMRECQGFAPDAELHIFRVFTNNQVSYTSWFLDAFNYAILKKIDVLNLSIGGPDFMDHPFVDKVWELTANNVIMVSAIGNDGPLYGTLNNPADQMDVIGVGGIDFEDNIARFSSRGMTTWELPGGYGRVKPDIVTYGAGVRGSGVKGGCRALSGTSVASPVVAGAVTLLVSTVQKRELVNPASVKQALIASARRLPGVNMFEQGHGKLDLLRAYQILSSYKPQASLSPSYIDLTECPYMWPYCSQPIYYGGMPTIVNVTILNGMGVTGRIVDKPEWRPYLPQNGDNIEVAFSYSSVLWPWSGYLAISISVTKKAASWEGIAQGHIMITVASPAETEAKNGAEHTSTVKLPIKVKIIPTPPRSKRVLWDQYHNLRYPPGYFPRDNLRMKNDPLDWNGDHVHTNFRDMYQHLRSMGYFVEVLGAPFTCFDATQYGTLLMVDSEEEYFPEEIAKLRRDVDNGLSLVIFSDWYNTSVMRKVKFYDENTRQWWMPDTGGANIPALNELLSVWNMGFSDGLYEGEFALANHDMYYASGCSIAKFPEDGVVITQTFKDQGLEVLKQETAVVENVPILGLYQIPAEGGGRIVLYGDSNCLDDSHRQKDCFWLLDALLQYTSYGVNPPSLSHSGNRQRPPSGAGLAPPERMEGNHLHRYSKVLEAHLGDPKPRPLPACPHLSWAKPQPLNETAPSNLWKHQKLLSIDLDKVVLPNFRSNRPQVRPLSPGESGAWDIPGGIMPGRYNQEVGQTIPVFAFLGAMVALAFFVVQISKAKSRPKRRRPRAKRPQLTQQTHPPRTPSV
cleavage of SREBP-2 by S1P or S1P mutant (SREBP-2): active
